The results in this text go back to publication PMC3763555 (Nucleic Acids Research, 2013).

Residue numbers refer to the chain shown, from its start. Names may count otherwise.

One data set addresses T1, drRecO K72E/Q73E;drRecR (Deinococcus radiodurans;Deinococcus …, UniProt Q9RW50;Q9ZNA2 1-244;1-220, K72E;Q73E|).
T1 sequence 1: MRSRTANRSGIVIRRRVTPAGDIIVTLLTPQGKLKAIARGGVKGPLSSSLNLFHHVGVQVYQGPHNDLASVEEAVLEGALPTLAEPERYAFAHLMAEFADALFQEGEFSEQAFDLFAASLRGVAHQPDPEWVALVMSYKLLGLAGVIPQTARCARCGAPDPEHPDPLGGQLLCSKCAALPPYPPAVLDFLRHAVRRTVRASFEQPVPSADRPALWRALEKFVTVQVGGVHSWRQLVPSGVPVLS
T1 sequence 2: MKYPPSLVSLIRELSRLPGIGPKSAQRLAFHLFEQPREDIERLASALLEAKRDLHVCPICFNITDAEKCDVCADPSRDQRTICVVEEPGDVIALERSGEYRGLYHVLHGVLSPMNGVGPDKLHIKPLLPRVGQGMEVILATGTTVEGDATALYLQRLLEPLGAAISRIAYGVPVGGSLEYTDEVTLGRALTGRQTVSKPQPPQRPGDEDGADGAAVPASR
Description: fluorescence anisotropy.

For the next data set, the target named is T2, drRecO K43E/K72E;drRecR (Deinococcus radiodurans;Deinococcus …, UniProt Q9RW50;Q9ZNA2 1-244;1-220, K43E;K72E|).
T2 sequence 1: T1 sequence 1 with K43E, E73Q
T2 sequence 2: T1 sequence 2
Description: fluorescence anisotropy.

In a further data set the target is T3, drRecR (Deinococcus radiodurans, UniProt Q9ZNA2 1-220).
T3 sequence: T1 sequence 2
Description: fluorescence anisotropy.

In the next data set the target is T4, drRecO Q59E;drRecR (Deinococcus radiodurans;Deinococcus …, UniProt Q9RW50;Q9ZNA2 1-244;1-220, Q59E|).
T4 sequence 1: T1 sequence 1 with Q59E, E72K, E73Q
T4 sequence 2: T1 sequence 2
Kind of data set: fluorescence anisotropy.

In the next data set the target is T5, drRecO;drRecR K23E/R27E (Deinococcus radiodurans;Deinococcus …, UniProt Q9RW50;Q9ZNA2 1-244;1-220, |K23E;R27E).
T5 sequence 1: T1 sequence 1 with E72K, E73Q
T5 sequence 2: T1 sequence 2 with K23E, R27E
Kind of data set: fluorescence anisotropy.

For the next data set, the target named is T6, drRecO (Deinococcus radiodurans, UniProt Q9RW50 1-244).
T6 sequence: T1 sequence 1 with E72K, E73Q
Kind of data set: fluorescence anisotropy.

The data set “crystal structure” concerns the molecule itself. Description: crystal structure.
Data set [1] deals with T7, Deinococcus radiodurans RecO, N-terminal hexa-histidine tag (Deinococcus radiodurans, UniProt Q9RW50 1-244).
T7 sequence (looked up): T1 sequence 1 with E72K, E73Q
Description: crystal structure.

The data set “SAXS” deals with the molecule itself. Description: SAXS.
Data set [2] has as its target T8, Deinococcus radiodurans RecO, C-terminal hexa-histidine tag (Deinococcus radiodurans, UniProt Q9RW50 1-244).
T8 sequence (looked up): T1 sequence 1 with E72K, E73Q
Description: SAXS.

Consider TTTTTTTTTTTTTTTTTTTTTTTTTTTTTTTTTTTTTTTTTTTTTTTTTT (ssDNA) [50mer poly(dT) ssDNA], for which the binding result in the data set with drRecO K72E/Q73E;drRecR is given as “binds”; with drRecO K43E/K72E;drRecR, “binds”; with drRecR it was “no binding”; with drRecO Q59E;drRecR, “no binding”; with drRecO;drRecR K23E/R27E, “no binding”. For the same molecule, the Kd in the data set with drRecO turned out to be 8.7 µM.

B1: 50mer dsDNA (dsDNA)
DNA 1: GACTACGTACTGTTACGGCTCCATCTCTACCGCAATCAGGCCAGATCTGC
DNA 2: GCAGATCTGGCCTGATTGCGGTAGAGATGGAGCCGTAACAGTACGTAGTC
On to B1, for which the binding result with drRecR, in the data set with drRecO Q59E;drRecR and with drRecO;drRecR K23E/R27E was “no binding” in each case.

B2: Deinococcus radiodurans RecR K23A/R27A double mutant (natural protein, UniProt Q9ZNA2 1-220, looked up)
chain: T1 sequence 2 with K23A, R27A
On to B2, for which the “stoichiometry N” value in “crystal structure” turned out to be 4. In addition, in data set [1], the binding result is listed as “binds”.

B3: Deinococcus radiodurans RecR, full length, without tag (natural protein, UniProt Q9ZNA2 1-220, looked up)
chain: T1 sequence 2
As for B3, in the data set “SAXS”, the “stoichiometry N” value was 2.

B4: Deinococcus radiodurans RecR, full length, C-terminal hexa-histidine tag (natural protein, UniProt Q9ZNA2 1-220, looked up)
chain: T1 sequence 2
In the case of B4, the binding result in data set [2] is recorded as “binds”.
